According to patent US20140087995A1 (published 2014):
Numbered stars: 1 amine (or outer) side, 2 acyl side, 3 side chain; on linkers, the order of the positions; unused ones are H or OH. Bridge positions count the residues as written; N and C are the ends. Side chains are listed from the residue outwards. Ends that are not written are not given here. * marks the point of attachment. C20 diacid = O=C(O)CCCCCCCCCCCCCCCCCCC(=O)*; γGlu = O=C(O)[C@H](CCC(=O)[*:2])N[*:1]

T1: human amylin receptor (amylin 3(a) receptor: human calcitonin receptor with RAMP-3) (human, UniProt P30988 25-474; O60896 24-148)
T1 construct: whole, on cells; also called hAmylin-R; hAmylinR
T1 sequence (looked up) 1: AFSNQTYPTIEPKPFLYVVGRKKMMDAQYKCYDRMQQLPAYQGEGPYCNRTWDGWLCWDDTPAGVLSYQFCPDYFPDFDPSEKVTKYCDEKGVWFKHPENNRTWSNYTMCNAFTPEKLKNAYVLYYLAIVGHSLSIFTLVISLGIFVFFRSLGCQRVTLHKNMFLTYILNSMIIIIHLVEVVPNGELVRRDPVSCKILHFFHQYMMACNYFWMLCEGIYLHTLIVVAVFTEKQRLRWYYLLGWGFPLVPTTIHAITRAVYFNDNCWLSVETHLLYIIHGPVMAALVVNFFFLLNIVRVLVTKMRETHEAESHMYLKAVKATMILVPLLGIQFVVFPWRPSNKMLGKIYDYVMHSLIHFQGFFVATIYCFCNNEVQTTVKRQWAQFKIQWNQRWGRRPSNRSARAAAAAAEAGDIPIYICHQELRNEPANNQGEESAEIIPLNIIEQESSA
T1 sequence (looked up) 2: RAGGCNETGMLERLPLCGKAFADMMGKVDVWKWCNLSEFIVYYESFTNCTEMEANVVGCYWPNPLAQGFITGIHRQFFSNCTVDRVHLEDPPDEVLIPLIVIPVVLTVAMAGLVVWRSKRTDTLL

B1: N^ε1-[(4S)-4-carboxy-4-(19-carboxynonadecanoylamino)butanoyl]-[His14,Arg17,Pro21,Pro27,Pro31]-h-amylin (peptide)
peptide: K([γGlu-C20 diacid])CNTATCATQRLAHFLRHSSPNFGAIPSSTPVGSNTY-NH2
modifications: disulfide 2-7; N-terminus assumed
SMILES: CC[C@H](C)[C@H](NC(=O)[C@H](C)NC(=O)CNC(=O)[C@H](Cc1ccccc1)NC(=O)[C@H](CC(N)=O)NC(=O)[C@@H]1CCCN1C(=O)[C@H](CO)NC(=O)[C@H](CO)NC(=O)[C@H](Cc1c[nH]cn1)NC(=O)[C@H](CCCNC(=N)N)NC(=O)[C@H](CC(C)C)NC(=O)[C@H](Cc1ccccc1)NC(=O)[C@H](Cc1c[nH]cn1)NC(=O)[C@H](C)NC(=O)[C@H](CC(C)C)NC(=O)[C@H](CCCNC(=N)N)NC(=O)[C@H](CCC(N)=O)NC(=O)[C@@H](NC(=O)[C@H](C)NC(=O)[C@@H]1CSSC[C@H](NC(=O)[C@@H](N)CCCCNC(=O)CC[C@H](NC(=O)CCCCCCCCCCCCCCCCCCC(=O)O)C(=O)O)C(=O)N[C@@H](CC(N)=O)C(=O)N[C@@H]([C@@H](C)O)C(=O)N[C@@H](C)C(=O)N[C@@H]([C@@H](C)O)C(=O)N1)[C@@H](C)O)C(=O)N1CCC[C@H]1C(=O)N[C@@H](CO)C(=O)N[C@@H](CO)C(=O)N[C@H](C(=O)N1CCC[C@H]1C(=O)N[C@H](C(=O)NCC(=O)N[C@@H](CO)C(=O)N[C@@H](CC(N)=O)C(=O)N[C@H](C(=O)N[C@@H](Cc1ccc(O)cc1)C(N)=O)[C@@H](C)O)C(C)C)[C@@H](C)O
notes: also called 62; compound 62
B2: N^ε1-[(4S)-4-carboxy-4-(19-carboxynonadecanoylamino)butanoyl]-[His14,Arg17,Pro21,Pro27]-h-amylin (peptide)
peptide: K([γGlu-C20 diacid])CNTATCATQRLAHFLRHSSPNFGAIPSSTNVGSNTY-NH2
modifications: disulfide 2-7; N-terminus assumed
SMILES: CC[C@H](C)[C@H](NC(=O)[C@H](C)NC(=O)CNC(=O)[C@H](Cc1ccccc1)NC(=O)[C@H](CC(N)=O)NC(=O)[C@@H]1CCCN1C(=O)[C@H](CO)NC(=O)[C@H](CO)NC(=O)[C@H](Cc1c[nH]cn1)NC(=O)[C@H](CCCNC(=N)N)NC(=O)[C@H](CC(C)C)NC(=O)[C@H](Cc1ccccc1)NC(=O)[C@H](Cc1c[nH]cn1)NC(=O)[C@H](C)NC(=O)[C@H](CC(C)C)NC(=O)[C@H](CCCNC(=N)N)NC(=O)[C@H](CCC(N)=O)NC(=O)[C@@H](NC(=O)[C@H](C)NC(=O)[C@@H]1CSSC[C@H](NC(=O)[C@@H](N)CCCCNC(=O)CC[C@H](NC(=O)CCCCCCCCCCCCCCCCCCC(=O)O)C(=O)O)C(=O)N[C@@H](CC(N)=O)C(=O)N[C@@H]([C@@H](C)O)C(=O)N[C@@H](C)C(=O)N[C@@H]([C@@H](C)O)C(=O)N1)[C@@H](C)O)C(=O)N1CCC[C@H]1C(=O)N[C@@H](CO)C(=O)N[C@@H](CO)C(=O)N[C@H](C(=O)N[C@@H](CC(N)=O)C(=O)N[C@H](C(=O)NCC(=O)N[C@@H](CO)C(=O)N[C@@H](CC(N)=O)C(=O)N[C@H](C(=O)N[C@@H](Cc1ccc(O)cc1)C(N)=O)[C@@H](C)O)C(C)C)[C@@H](C)O
notes: also called 70; compound 70
B3: N^ε1-[(4S)-4-carboxy-4-[[(4S)-4-carboxy-4-(19-carboxynonadecanoylamino)butanoyl]amino]butanoyl]-[Arg17,Pro21,Pro27,His34]-h-amylin (peptide)
peptide: K([γGlu-γGlu-C20 diacid])CNTATCATQRLANFLRHSSPNFGAIPSSTNVGHNTY-NH2
modifications: disulfide 2-7; N-terminus assumed
SMILES: CC[C@H](C)[C@H](NC(=O)[C@H](C)NC(=O)CNC(=O)[C@H](Cc1ccccc1)NC(=O)[C@H](CC(N)=O)NC(=O)[C@@H]1CCCN1C(=O)[C@H](CO)NC(=O)[C@H](CO)NC(=O)[C@H](Cc1c[nH]cn1)NC(=O)[C@H](CCCNC(=N)N)NC(=O)[C@H](CC(C)C)NC(=O)[C@H](Cc1ccccc1)NC(=O)[C@H](CC(N)=O)NC(=O)[C@H](C)NC(=O)[C@H](CC(C)C)NC(=O)[C@H](CCCNC(=N)N)NC(=O)[C@H](CCC(N)=O)NC(=O)[C@@H](NC(=O)[C@H](C)NC(=O)[C@@H]1CSSC[C@H](NC(=O)[C@@H](N)CCCCNC(=O)CC[C@H](NC(=O)CC[C@H](NC(=O)CCCCCCCCCCCCCCCCCCC(=O)O)C(=O)O)C(=O)O)C(=O)N[C@@H](CC(N)=O)C(=O)N[C@@H]([C@@H](C)O)C(=O)N[C@@H](C)C(=O)N[C@@H]([C@@H](C)O)C(=O)N1)[C@@H](C)O)C(=O)N1CCC[C@H]1C(=O)N[C@@H](CO)C(=O)N[C@@H](CO)C(=O)N[C@H](C(=O)N[C@@H](CC(N)=O)C(=O)N[C@H](C(=O)NCC(=O)N[C@@H](Cc1c[nH]cn1)C(=O)N[C@@H](CC(N)=O)C(=O)N[C@H](C(=O)N[C@@H](Cc1ccc(O)cc1)C(N)=O)[C@@H](C)O)C(C)C)[C@@H](C)O
notes: also called 86; compound 86
B4: N^ε1-[(4S)-4-carboxy-4-[[(4S)-4-carboxy-4-(19-carboxynonadecanoylamino)butanoyl]amino]butanoyl]-[Asp14,Arg17,Pro21,Pro26,Asp35]-h-amylin (peptide)
peptide: K([γGlu-γGlu-C20 diacid])CNTATCATQRLADFLRHSSPNFGAPLSSTNVGSDTY-NH2
modifications: disulfide 2-7; N-terminus assumed
SMILES: CC(C)C[C@H](NC(=O)[C@H](CCCNC(=N)N)NC(=O)[C@H](CCC(N)=O)NC(=O)[C@@H](NC(=O)[C@H](C)NC(=O)[C@@H]1CSSC[C@H](NC(=O)[C@@H](N)CCCCNC(=O)CC[C@H](NC(=O)CC[C@H](NC(=O)CCCCCCCCCCCCCCCCCCC(=O)O)C(=O)O)C(=O)O)C(=O)N[C@@H](CC(N)=O)C(=O)N[C@@H]([C@@H](C)O)C(=O)N[C@@H](C)C(=O)N[C@@H]([C@@H](C)O)C(=O)N1)[C@@H](C)O)C(=O)N[C@@H](C)C(=O)N[C@@H](CC(=O)O)C(=O)N[C@@H](Cc1ccccc1)C(=O)N[C@@H](CC(C)C)C(=O)N[C@@H](CCCNC(=N)N)C(=O)N[C@@H](Cc1c[nH]cn1)C(=O)N[C@@H](CO)C(=O)N[C@@H](CO)C(=O)N1CCC[C@H]1C(=O)N[C@@H](CC(N)=O)C(=O)N[C@@H](Cc1ccccc1)C(=O)NCC(=O)N[C@@H](C)C(=O)N1CCC[C@H]1C(=O)N[C@@H](CC(C)C)C(=O)N[C@@H](CO)C(=O)N[C@@H](CO)C(=O)N[C@H](C(=O)N[C@@H](CC(N)=O)C(=O)N[C@H](C(=O)NCC(=O)N[C@@H](CO)C(=O)N[C@@H](CC(=O)O)C(=O)N[C@H](C(=O)N[C@@H](Cc1ccc(O)cc1)C(N)=O)[C@@H](C)O)C(C)C)[C@@H](C)O
notes: also called compound 1
B5: N^ε1-[(4S)-4-carboxy-4-[[(4S)-4-carboxy-4-(19-carboxynonadecanoylamino)butanoyl]amino]butanoyl]-[Asp14,Arg17,Pro21,Pro27,Arg35]-h-amylin (peptide)
peptide: K([γGlu-γGlu-C20 diacid])CNTATCATQRLADFLRHSSPNFGAIPSSTNVGSRTY-NH2
modifications: disulfide 2-7; N-terminus assumed
SMILES: CC[C@H](C)[C@H](NC(=O)[C@H](C)NC(=O)CNC(=O)[C@H](Cc1ccccc1)NC(=O)[C@H](CC(N)=O)NC(=O)[C@@H]1CCCN1C(=O)[C@H](CO)NC(=O)[C@H](CO)NC(=O)[C@H](Cc1c[nH]cn1)NC(=O)[C@H](CCCNC(=N)N)NC(=O)[C@H](CC(C)C)NC(=O)[C@H](Cc1ccccc1)NC(=O)[C@H](CC(=O)O)NC(=O)[C@H](C)NC(=O)[C@H](CC(C)C)NC(=O)[C@H](CCCNC(=N)N)NC(=O)[C@H](CCC(N)=O)NC(=O)[C@@H](NC(=O)[C@H](C)NC(=O)[C@@H]1CSSC[C@H](NC(=O)[C@@H](N)CCCCNC(=O)CC[C@H](NC(=O)CC[C@H](NC(=O)CCCCCCCCCCCCCCCCCCC(=O)O)C(=O)O)C(=O)O)C(=O)N[C@@H](CC(N)=O)C(=O)N[C@@H]([C@@H](C)O)C(=O)N[C@@H](C)C(=O)N[C@@H]([C@@H](C)O)C(=O)N1)[C@@H](C)O)C(=O)N1CCC[C@H]1C(=O)N[C@@H](CO)C(=O)N[C@@H](CO)C(=O)N[C@H](C(=O)N[C@@H](CC(N)=O)C(=O)N[C@H](C(=O)NCC(=O)N[C@@H](CO)C(=O)N[C@@H](CCCNC(=N)N)C(=O)N[C@H](C(=O)N[C@@H](Cc1ccc(O)cc1)C(N)=O)[C@@H](C)O)C(C)C)[C@@H](C)O
notes: also called 52; compound 52
B6: N^ε1-[(4S)-4-carboxy-4-[[(4S)-4-carboxy-4-(19-carboxynonadecanoylamino)butanoyl]amino]butanoyl]-[Asp14,Arg17,Pro21,Pro27,Asp35]-h-amylin (peptide)
peptide: K([γGlu-γGlu-C20 diacid])CNTATCATQRLADFLRHSSPNFGAIPSSTNVGSDTY-NH2
modifications: disulfide 2-7; N-terminus assumed
SMILES: CC[C@H](C)[C@H](NC(=O)[C@H](C)NC(=O)CNC(=O)[C@H](Cc1ccccc1)NC(=O)[C@H](CC(N)=O)NC(=O)[C@@H]1CCCN1C(=O)[C@H](CO)NC(=O)[C@H](CO)NC(=O)[C@H](Cc1c[nH]cn1)NC(=O)[C@H](CCCNC(=N)N)NC(=O)[C@H](CC(C)C)NC(=O)[C@H](Cc1ccccc1)NC(=O)[C@H](CC(=O)O)NC(=O)[C@H](C)NC(=O)[C@H](CC(C)C)NC(=O)[C@H](CCCNC(=N)N)NC(=O)[C@H](CCC(N)=O)NC(=O)[C@@H](NC(=O)[C@H](C)NC(=O)[C@@H]1CSSC[C@H](NC(=O)[C@@H](N)CCCCNC(=O)CC[C@H](NC(=O)CC[C@H](NC(=O)CCCCCCCCCCCCCCCCCCC(=O)O)C(=O)O)C(=O)O)C(=O)N[C@@H](CC(N)=O)C(=O)N[C@@H]([C@@H](C)O)C(=O)N[C@@H](C)C(=O)N[C@@H]([C@@H](C)O)C(=O)N1)[C@@H](C)O)C(=O)N1CCC[C@H]1C(=O)N[C@@H](CO)C(=O)N[C@@H](CO)C(=O)N[C@H](C(=O)N[C@@H](CC(N)=O)C(=O)N[C@H](C(=O)NCC(=O)N[C@@H](CO)C(=O)N[C@@H](CC(=O)O)C(=O)N[C@H](C(=O)N[C@@H](Cc1ccc(O)cc1)C(N)=O)[C@@H](C)O)C(C)C)[C@@H](C)O
notes: also called compound 2

Biological target: T1, human amylin receptor (amylin 3(a) …)
Assay: SPA displacement of 125I-rat amylin, hAmylin 3(a) receptor membranes
Summary of the method: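 SPA beads + BHK amylin 3(a)/CRE-luc membranes, 35 ng/μL final; buffer 50 mM Hepes pH 7.4, 1 mM CaCl2, 5 mM MgCl₂, 0.1% OA, 0.02% Tween20. 120 min, 25° C, shaken; scintillation count. IC₅₀ by one-site binding competition fit, taken as receptor affinity.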

IC50	Binder
0.098 nM	B1
0.169 nM	B2
0.833 nM	B3
1.18 nM	B4
0.697 nM	B5
0.411 nM	B6
